This note sets out measurements from US7223902B1, “Method of producing recombinant Aspergillus niger β-glucosidase and an aroma spreading plant” (Yissum Research Development Company of the Hebrew …, priority 1999, dated 2007).

In series [1] the target is A. niger β-Glucosidase (BGL1). Put plainly: Inactivation of A. niger β-glucosidase by 2FGlcF, residual activity with DNPGlc. In kind it is biochemical, Aspergillus niger. Particulars: 30 mM citrate buffer pH=4.8, 50° C., 0.5-6 mM inactivator. As to the method:
Pure A. niger β-Glucosidase enzyme (0.47 mg/ml) was incubated in the presence of various concentrations of 2-deoxy-2-fluoro-β-glucosyl fluoride (2FGlcF, 0.5-6 mM) in 30 mM citrate buffer pH=4.8 at 50° C. Residual enzyme activity was determined at different time intervals by addition of an aliquot (10 μl) of the inactivation mixture, to a solution containing citrate buffer (30 mM, pH=4.8), BSA (8 μg) and 2,4-dinitrophenyl β-D-glucopyranoside (DNPGlc, 0.625 mM, 830 μl). Release of DNP was determined spectrophotometrically by measuring the absorbance at 400 nm one minute after the addition of the substrate.
Enzyme was incubated in the presence of various concentrations of 2FGlcF and residual enzyme activity was monitored at different time intervals.

The subject of series [2] is 2-deoxy-2-fluoroglucosyl-BGL1. Put plainly: Reactivation of 2FGlcF-inactivated enzyme in the presence of linamarin. It is filed as biochemical, Aspergillus niger. To be noted: linamarin 0-16 mM, pH=4.8, 50° C., 0, 10, 20 and 30 min. As to the method:
Reactivation rates were determined as follows: pure A. niger β-glucosidase (0.34 mg/ml) was preincubated with 2FGlcF (5 mM) for 15 min, after which the excess of the inactivator was diafiltered by 20-kDa nominal molecular mass cutoff centrifugal concentrators (Sartorius Inc., Goettingen, Germany). Samples of the purified, inactivated enzyme were incubated in the presence linamarin (0-16 mM) in citrate buffer (30 mM, pH=4.8) at 50° C. for 0, 10, 20 and 30 minutes, and the activity of each sample was determined using p-nitrophenyl β-D-glucopyranoside (pNPGlc) as a substrate.
Rates of reactivation of 2-deoxy-2-fluoroglucosyl-BGL1 were determined in the presence of different concentrations of linamarin by monitoring activity regain after 0, 10, 20 and 30 min (FIG. 9).

Series [3] in a line: SDS-PAGE activity gel staining (MUGlc) of transgenic tobacco plant extracts. In kind it is biochemical, Nicotiana tabacum cv. Samson. Particulars: number of tobacco regenerates with BGL1 activity. Here is the method:
Detection of β-glucosidase in polyacrylamide gels was carried out by washing the SDS-polyacrylamide gel with 1:1 isopropanol:PC buffer to remove SDS and renature the enzyme. The gel was washed once in PC buffer and incubated in a thin layer of a solution of 0.5 mM MUGlc. After incubation at 50° C. for one hour, the active protein band was visualized by UV light.
Western blot (40) and SDS-PAGE activity gel staining (37) were employed to screen successful transgenic lines, using the purified A. niger BGL1 protein as positive controls and non-transgenic plant as negative control.

Series [4] can be described thus: Determination of thermal stability of A. niger β-glucosidase (standard pNPGlc assay). In kind it is physicochemical. Particulars: for % activity: percent of enzyme solution kept at 4° C., pH=5. As to the method: Determination of Thermal Stability of A. niger β-Glucosidase:
Recombinant enzyme (40 μg/ml) was dissolved in 20 mM citrate phosphate buffer, pH=5. Each tested sample (8 μl) was covered by 15 μl mineral oil. The activity was determined by the standard pNPGlc assay (7).
Thermal stability of the recombinant enzyme was evaluated at different temperatures, presented as percent enzymatic activity relative to an enzyme solution kept at 4° C. Results obtained are summarized in Table 2 and illustrated in FIG. 10.

Series [5] is described as follows: Quantitative β-glucosidase assay using pNPGlc as a substrate. In kind it is biochemical. As to the method:
Quantitative assays were performed using pNPGlc as a substrate according to Shoseyov (7).

Take `OC[C@H]1O[C@@H](F)[C@H](F)[C@@H](O)[C@@H]1O` [2FGlcF, 2-deoxy-2-fluoro β-glucosyl fluoride]: in series [1], the KI (inactivation) was determined as 35.4 mM and the “pseudo-first order rate constant Ki for inactivation” value is 4.5 min⁻¹.
As to `CC(C)(C#N)O[C@@H]1O[C@H](CO)[C@@H](O)[C@H](O)[C@H]1O` [linamarin], in series [2], the “regain of activity of 2-deoxy-2-fluoroglucosyl-BGL1” value was “followed a first order process”.

B1: BGL1: BGL1 without a signal peptide expressed in tobacco plants (plasmid pJDB1, SEQ ID NO:14) (protein)
chain: DELAYSPPYYPSPWANGQGDWAQAYQRAVDIVSQMTLDEKVNLTTGTGWELELCVGQTGGVPRLGVPGMCLQDSPLGVRDSDYNSAFPAGMNVAATWDKNLAYLRGKAMGQEFSDKGADIQLGPAAGPLGRSPDGGRNWEGFSPDPALSGVLFAETIKGIQDAGVVATAKHYIAYEQEHFRQAPEAQGFGFNISESGSANLDDKTMHELYLWPFADAIRAGAGAVMCSYNQINNSYGCQNSYTLNKLLKAELGFQGFVMSDWAAHHAGVSGALAGLDMSMPGDVDYDSGTSYWGTNLTISVLNGTVPQWRVDDMAVRIMAAYYKVGRDRLWTPPNFSSWTRDEYGYKYYYVSEGPYEKVNQYVNVQRNHSELIRRIGADSTVLLKNDGALPLTGKERLVALIGEDAGSNPYGANGCSDRGCDNGTLAMGWGSGTANFPYLVTPEQAISNEVLKHKNGVFTATDNWAIDQIEALAKTASVSLVFVNADSGEGYINVDGNLGDRRNLTLWRNGDNVIKAAASNCNNTIVVIHSVGPVLVNEWYDNPNVTAILWGGLPGQESGNSLADVLYGRVNPGAKSPFTWGKTREAYQDYLVTEPNNGNGAPQEDFVEGVFIDYRGFDKRNETPIYEFGYGLSYTTFNYSNLEVQVLSAPAYEPASGETEAAPTFGEVGNASDYLYPSGLLRITKFIYPWLNGTDLEASSGDASYGQDSSDYLPEGATDGSAQPILPAGGGPGGNPRLYDELIRVSVTIKNTGKVAGDEVPQLYVSLGGPNEPKIVLRQFERITLQPSEETKWSTTLTRRDLANWNVEKQDWEITSYPKMVFVGSSSRKLPLRASLPTVH
In turn, B1 returned an Activity gel positive in series [3] of 0.

B2: recombinant BGL1: Recombinant Aspergillus niger B1 β-glucosidase (SEQ ID NO:2) expressed from bgl1 cDNA in P. pastoris, S. cerevisiae or E. coli (protein)
chain: MRFTLIEAVALTAVSLASADELAYSPPYYPSPWANGQGDWAQAYQRAVDIVSQMTLDEKVNLTTGTGWELELCVGQTGGVPRLGVPGMCLQDSPLGVRDSDYNSAFPAGMNVAATWDKNLAYLRGKAMGQEFSDKGADIQLGPAAGPLGRSPDGGRNWEGFSPDPALSGVLFAETIKGIQDAGVVATAKHYIAYEQEHFRQAPEAQGFGFNISESGSANLDDKTMHELYLWPFADAIRAGAGAVMCSYNQINNSYGCQNSYTLNKLLKAELGFQGFVMSDWAAHHAGVSGALAGLDMSMPGDVDYDSGTSYWGTNLTISVLNGTVPQWRVDDMAVRIMAAYYKVGRDRLWTPPNFSSWTRDEYGYKYYYVSEGPYEKVNQYVNVQRNHSELIRRIGADSTVLLKNDGALPLTGKERLVALIGEDAGSNPYGANGCSDRGCDNGTLAMGWGSGTANFPYLVTPEQAISNEVLKHKNGVFTATDNWAIDQIEALAKTASVSLVFVNADSGEGYINVDGNLGDRRNLTLWRNGDNVIKAAASNCNNTIVVIHSVGPVLVNEWYDNPNVTAILWGGLPGQESGNSLADVLYGRVNPGAKSPFTWGKTREAYQDYLVTEPNNGNGAPQEDFVEGVFIDYRGFDKRNETPIYEFGYGLSYTTFNYSNLEVQVLSAPAYEPASGETEAAPTFGEVGNASDYLYPSGLLRITKFIYPWLNGTDLEASSGDASYGQDSSDYLPEGATDGSAQPILPAGGGPGGNPRLYDELIRVSVTIKNTGKVAGDEVPQLYVSLGGPNEPKIVLRQFERITLQPSEETKWSTTLTRRDLANWNVEKQDWEITSYPKMVFVGSSSRKLPLRASLPTVH
modifications: Aspergillus niger
Regarding B2, the “% activity” value in series [4] (4 °C) worked out at 100%; in series [4] (50 °C), 91.5%; in series [4] (55 °C) it was 83.5%; in series [4] (60 °C) it was 68%; in series [4] (65 °C), 17.8%. Further, the “% activity retained” value in series [4] (after 1 hour incubation at 60° C., percent activity of an enzyme kept at 4° C.) was 68%. The activity maintained result in series [4] (temperature ranging from 4-60° C.) is recorded as “above 50%”. For the same molecule, the β-glucosidase activity entry in series [5] (overexpressed in E. coli, E. coli extracts) is given as “No apparent β-glucosidase activity could be detected”. This molecule gave a specific activity in series [5] (secreted by P. pastoris to the medium, without further purification) of 124 units/mg protein.
